# Patent publication US20230066517A1, “Phospholipid Ether Conjugates as Cancer-Targeting Drug Vehicles” (Cellectar Biosciences, Inc., priority 2019, published 2023)
# Starred links: 1 amine or outer side, 2 acyl side, 3 side chain; linkers in the order of their positions; H or OH if unused. Non-standard residues stand in square brackets, D forms with d. Residues, ends and D or L forms follow the SMILES beside them. *: point of attachment. X1 = C[N+](C)(C)CCOP(=O)([O-])OCCCCCCCCCCCCCCCCCCc1ccc(C(=O)*)cc1; Dolaproine = CO[C@@H]([C@@H]1CCCN1)[C@@H](C)C(=O)O; Dil = CC[C@H](C)[C@H](NC)[C@@H](CC(=O)O)OC; PABC = O=C(OCc1ccc(N[*:1])cc1)[*:2]; X2 = C[C@@H](N*)[C@@H](O)c1ccccc1; Cit = NC(=O)NCCC[C@H](N)C(=O)O; NMeV = CN[C@H](C(=O)O)C(C)C
# What was measured:
# HCT 116 xenografts = experiment: In vivo efficacy in colorectal cancer xenograft model; parameters: species or system athymic nude mice; conditions: 10 mg/kg on day 1 and 4
# Procedure: CLR180099 was administered intravenously (IV) to healthy C57BL/6 mice to determine the maximum tolerated dose (MTD) as compared to the FLV molecule alone. The vehicle used to administer CLR180099 was PBS in this case, however any pharmaceutically suitable vehicle may be used. Each group contained 5 mice. In vivo efficacy was assessed in athymic nude mice bearing HCT 116 xenografts. The mice were flank models which were developed by injecting the hind flank of the mice with about 1x10^6 of the cells resuspended in […] of 1.2% methylcellulose. The study was initiated when group mean tumor volume reached about 120 mm^3. Tumor volume was measured using calipers - measurements of the length, width, and depth of the tumor were used to calculate the tumor volume. Two doses (2 mg/kg given 2 times or 2 mg/kg given 3 times) of CLR180099 were assessed. Each group contained 10 mice. Tumor volume was monitored for efficacy and body weight for tolerability. Total conjugated CLR180099 and free FLV were determined via mass spectrometry.
# The study was initiated when group mean tumor volume reached -120 mm^3 (Day 1). CLR180099 was dosed IV at 2 mg/kg on either day 1 and 4 or day 1, 3 and 5. Docetaxel was dosed at 10 mg/kg on day 1 and 4. […] Five mice per group were dosed at each dose level. Both PDCs were tolerated up to dose of 10 mg/kg with all mice alive and showing no end organ toxicities (TABLE 5). […]
# [1] = Cyprotex Plasma Stability assay, mouse plasma; format: in vitro ADME
# Procedure: To determine whether cytotoxic PDCs are tolerated in vivo, C57BL/6 mice were dosed in the following manner: PDC-SM2 was dosed on days 0, 3 and 7 at dose levels of 0.5 mg/kg, 1.0 mg/kg, or 2.0 mg/kg; Payload alone was dosed on day 0 only at 0.25 mg/kg, 0.4 mg/kg, or 0.5 mg/kg; vehicle was dosed on day 0, 3 and 7. […] Plasma stability was measured using Cyprotex’s Plasma Stability assay. The samples were at a concentration of 1 µM and were incubated at 0, 15, 30, 60 and 120 minutes. A positive control compound which undergoes degradation in plasma was used. The percent of the compound remaining at each incubation time point was measured.
# [2] = Cyprotex Plasma Stability assay, human plasma; format: in vitro ADME
# Procedure: To determine whether cytotoxic PDCs are tolerated in vivo, C57BL/6 mice were dosed in the following manner: PDC-SM2 was dosed on days 0, 3 and 7 at dose levels of 0.5 mg/kg, 1.0 mg/kg, or 2.0 mg/kg; Payload alone was dosed on day 0 only at 0.25 mg/kg, 0.4 mg/kg, or 0.5 mg/kg; vehicle was dosed on day 0, 3 and 7. […] Payload dose of 0.5 mg/kg was not tolerated, two mice died by day 4 following a single infusion and all mice were sacrificed on day 5 (FIG. 5). […] Plasma stability was measured using Cyprotex’s Plasma Stability assay. The samples were at a concentration of 1 µM and were incubated at 0, 15, 30, 60 and 120 minutes. A positive control compound which undergoes degradation in plasma was used. The percent of the compound remaining at each incubation time point was measured. […] Overall, PDCs offer a novel and unique approach to targeting small molecules to tumor cells.
# [3] = test system: HCC70 triple negative breast cancer (TNBC) xenografts; experiment: In vivo efficacy in TNBC xenograft model; parameters: species or system R2G2 mice
# Procedure: In vivo efficacy was further assessed in R2G2 mice bearing HCC70 triple negative breast cancer (TNBC) xenografts. Three doses (1 mg/kg) given once, twice or 3 times per week for 2 weeks of CLR2000045 were assessed. CLR2000045 was administered systemically by injection of the tail vein. Each group contained 10 mice. Tumor volume was monitored for efficacy and body weight for tolerability. Survival was also monitored.
# The study was initiated when group mean tumor volume reached ~200 mm^3 (Day 4). CLR2000045 was dosed IV at the following doses: 1 mg/kg on either day 5 and 12 or day 5, 8, 12 and 15 or day 5, 7, 9, 12, 14, and 16. […] Changes in body weight post treatment were measured in the (HCC70) mouse xenograft model (FIG. 11A and FIG. 11B).
# [4] = test system: Hs578T triple negative breast cancer cells; experiment: In vitro cytotoxicity, Cell Titer-Glo assay; format: cell-based; conditions: FIG. 7
# Procedure: (§1) In vitro uptake of CLR2000045 was assessed using MCF-7 breast cancer cells and normal human dermal fibroblasts (NHDF) cells and was measured via LC/MS/MS. The breast cancer cells were maintained in minimum essential medium supplemented with 10% FBS. All cells were maintained at 37° C. and 5% CO2. Cells were incubated with 1 µM of drug and reported values were the average of triplicate assessments. In vitro cytotoxicity was determined by Cell Titer-Glo® assay using MCF-7 breast cancer cells and Hs578T triple negative breast cancer cells.
# Between 24 and 48 hours a steady state between uptake and release of the warhead was achieved (FIG. 6). […] Half maximal inhibitory concentration (IC50) was measured in the cell lines (TABLE 2). Plasma stability of CLR2000045 was also measured (TABLE 3).
# [5] = test system: normal human dermal fibroblasts (NHDF) cells; experiment: In vitro uptake of CLR2000045, LC/MS/MS; format: cell-based; conditions: 1 µM
# Procedure: as §1
# [6] = test system: MCF-7 breast cancer cells; conditions: FIG. 7
# Procedure: The breast cancer cells were maintained in minimum essential medium supplemented with 10% FBS. All cells were maintained at 37° C. and 5% CO2. […] In vitro cytotoxicity was determined by Cell Titer-Glo® assay using MCF-7 breast cancer cells and Hs578T triple negative breast cancer cells.
# [7] = test system: MCF-7 breast cancer cells; experiment: In vitro uptake and release of CLR2000045, LC/MS/MS; format: cell-based
# Procedure: as §1
# [8] = Table 1, 1 µM, 0-120 minutes, read-out: Human T½
compound,measurement,setting,value
CC(=O)O[C@@]12CO[C@@H]1C[C@H](O)[C@@]1(C)C(=O)[C@H](O)C3=C(C)[C@@H](OC(=O)[C@H](O)[C@@H](NC(=O)OC(C)(C)C)c4ccccc4)C[C@@](O)([C@@H](OC(=O)c4ccccc4)[C@H]21)C3(C)C [docetaxel],deaths in treatment arm,HCT 116 xenografts,multiple deaths starting at day 18 and ending at day 26
CC[C@H](C)[C@@H]([C@@H](CC(=O)N1CCC[C@H]1[C@H](OC)[C@@H](C)C(=O)N[C@H](C)[C@@H](O)c1ccccc1)OC)N(C)C(=O)[C@@H](NC(=O)[C@H](C(C)C)N(C)C(=O)OCc1ccc(NC(=O)[C@H](CCCNC(N)=O)NC(=O)[C@@H](NC(=O)c2ccc(CCCCCCCCCCCCCCCCCCOP(=O)([O-])OCC[N+](C)(C)C)cc2)C(C)C)cc1)C(C)C [PDC-SM3] (X1-V[Cit][PABC][NMeV]V[Dil][Dolaproine]-X2),half-life at 1 µM,"[1]; Table 1, 1 µM, 0-120 minutes, read-out: Mouse T½",> 6.67 h
same,half-life at 1 µM,[2]; [8],> 6.67 h
C=C(c1ccc(OC)c(NC(=O)OCc2ccc(OP(=O)(O)OP(=O)(O)OCCNC(=O)c3ccc(CCCCCCCCCCCCCCCCCCOP(=O)([O-])OCC[N+](C)(C)C)cc3)cc2)c1)c1cc(C)nc2ccccc12 [CLR2000045],eradication of the tumor,[3]; 1 mg/kg IV 3 times per week for 2 weeks (highest dose),~100%
same,tumor volume compared to vehicle control,"[3]; 1 mg/kg IV, 2 highest dose groups (2x and 3x per week for 2 weeks), p≤0.05 and p≤0.01",statistically significant reduction in tumor volume
same,survival (Kaplan-Meier),"[3]; 1 mg/kg three times per week for 2 weeks, vs vehicle (p≤0.001) and 1 time per week (p≤0.05)",significant increase in survival
same,survival (Kaplan-Meier),"[3]; 1 mg/kg twice a week for two weeks, vs vehicle (p≤0.05)",significant increase
same,tolerability as measured by body weight loss,[3]; two highest doses,well tolerated
same,half-life at 1 µM,"[1]; Table 3, read-out: Mouse t½",> 6.67 h
same,IC50,[4],0.051 µM
same,uptake in normal tissue,[5],minimal uptake
same,IC50,[6],0.076 µM
same,half-life at 1 µM,"[2]; Table 3, read-out: Human t½",> 6.67 h
same,uptake in tumor cells,[7]; 1 µM,significant uptake
same,release of the warhead,[7]; at each timepoint,approximately 50%
same,"uptake and release of payload, share of exposed drug",[7]; tumor cell lines,20-40%
"CC(C)[N+](C)(CCOC(=O)C1c2ccccc2Oc2ccccc21)C(C)C [Propantheline, reference compound]",half-life at 1 µM,"[1]; Table 3, read-out: Mouse t½",0.95 h
same,half-life at 1 µM,[2]; [8],0.9 h
same,half-life at 1 µM,"[2]; Table 3, read-out: Human t½",1.28 h
same,half-life at 1 µM,"[2]; Table 4, read-out: Human t½",0.9 h
C=C(c1ccc(OC)c(NP(=O)(O)OP(=O)(O)OCCNC(=O)c2ccc(CCCCCCCCCCCCCCCCCCOP(=O)([O-])OCC[N+](C)(C)C)cc2)c1)c1cc(C)nc2ccccc12 [CLR2013],half-life at 1 µM,"[1]; Table 3, read-out: Mouse t½",1.28 h
same,half-life at 1 µM,"[2]; Table 3, read-out: Human t½",> 6.67 h
COC(=O)[C@@H]1[C@H](O)[C@]2(O)c3c(OC)cc(OCCCCNC(=O)OCC(C)(C)SSCCCCCCCCCCCCCCCCCCOP(=O)([O-])OCC[N+](C)(C)C)cc3O[C@]2(c2ccc(OC)cc2)[C@H]1c1ccccc1 [CLR1800095],stability in mouse plasma (in words),[1],some instability
same,half-life at 1 µM,"[1]; Table 4, read-out: Mouse t½",3.32 h
same,half-life at 1 µM,"[2]; Table 4, read-out: Human t½",> 6.67 h
